From article PMC3680705

Target: Drosophila Slit D1-4 (the four leucine-rich repeat domains) (Drosophila)
Assay: ELISA

Chain of Drosophila Slit D1-4 (the four leucine-rich repeat domains) (Drosophila) (P24014 64-922): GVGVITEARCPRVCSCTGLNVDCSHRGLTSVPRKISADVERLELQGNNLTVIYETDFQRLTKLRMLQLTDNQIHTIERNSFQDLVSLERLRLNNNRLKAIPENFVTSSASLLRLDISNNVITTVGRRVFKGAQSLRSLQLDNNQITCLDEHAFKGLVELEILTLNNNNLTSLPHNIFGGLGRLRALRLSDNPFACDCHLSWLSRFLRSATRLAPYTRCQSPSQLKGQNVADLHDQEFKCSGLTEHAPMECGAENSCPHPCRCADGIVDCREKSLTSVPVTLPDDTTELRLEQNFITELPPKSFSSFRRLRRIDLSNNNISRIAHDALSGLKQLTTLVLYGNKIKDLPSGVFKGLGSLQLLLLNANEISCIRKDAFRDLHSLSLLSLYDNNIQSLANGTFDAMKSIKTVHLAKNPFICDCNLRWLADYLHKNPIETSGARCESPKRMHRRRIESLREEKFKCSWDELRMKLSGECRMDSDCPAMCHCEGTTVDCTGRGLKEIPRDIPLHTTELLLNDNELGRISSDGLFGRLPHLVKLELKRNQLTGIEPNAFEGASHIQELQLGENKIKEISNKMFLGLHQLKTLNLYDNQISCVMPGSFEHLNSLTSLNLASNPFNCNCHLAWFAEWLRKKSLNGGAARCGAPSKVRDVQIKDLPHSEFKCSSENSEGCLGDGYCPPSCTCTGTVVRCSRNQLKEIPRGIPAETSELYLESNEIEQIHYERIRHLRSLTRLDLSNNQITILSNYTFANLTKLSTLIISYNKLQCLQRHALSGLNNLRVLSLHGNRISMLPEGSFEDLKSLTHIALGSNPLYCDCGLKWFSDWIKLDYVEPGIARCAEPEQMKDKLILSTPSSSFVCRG

fold increase of the apparent affinity with 10 μg/ml heparin against no heparin: > 10 fold
Substance: Drosophila Robo IG1–5 Fc (Fc fusion)
